Results as given in patent publication US11819556B2, “Stabilized compositions of radionuclides and uses thereof” (RayzeBio, Inc., priority 2021, dated 2023).
Marks after values point to notes of the source that are not given here.

Key:
Format in all cases: physicochemical
[1] = Dextran ratio optimization: radio-TLC purity; conditions: 25 μCi/ml
Protocol: (§1) The mixture was kept at room temperature (25° C.). At different time points, radioactive components of the formulated dose were measured by radio-TLC as described in the table below: […]

[2] = EGCg concentration: radio-TLC purity; conditions: 25 μCi/ml, 100 mM sodium ascorbate pH 5.80, 0.05 mg/ml DTPA, saline, 25° C.
Protocol: as §1

[3] = Sodium ascorbate concentration optimization: radio-TLC purity; conditions: Radioactivity concentration at 1 mCi/ml, 25° C.
Protocol: as §1

(2,2′,2″-(10-(2-4(R)-1-(((4R,7S,10S,13R,16S,19R)-13-((1H-indol-3-yl)methyl)-10-(4-aminobutyl)-4-(((1S,2R)-1-carboxy-2-hydroxypropyl)carbamoyl)-16-(4-hydroxybenzyl)-7-((R)-1-hydroxyethyl)-6,9,12,15,18-pentaoxo-1,2-dithia-5,8,11,14,17-pentaazacycloicosan-19-yl)amino)-1-oxo-3-phenylpropan-2-yl)amino)-2-oxoethyl)-1,4,7,10-tetraazacyclododecane-1,4,7-triyl)triacetate; actinium-225(3+)) [[^225Ac]Ac-DOTA-TATE]
Percentage of ^225Ac present in [^225Ac]Ac-DOTA-TATE ([1]; Dextran 0% w/w, 0 hour, 100 mM sodium ascorbate, 0.05 mg/ml DTPA, saline, pH 5.80, 25° C.): 99.90%
Percentage of ^225Ac present in [^225Ac]Ac-DOTA-TATE ([1]; Dextran 0% w/w, 24 hours, 100 mM sodium ascorbate, 0.05 mg/ml DTPA, saline, pH 5.80, 25° C.): 99.42%
Percentage of ^225Ac present in [^225Ac]Ac-DOTA-TATE ([1]; Dextran 0% w/w, 48 hours, 100 mM sodium ascorbate, 0.05 mg/ml DTPA, saline, pH 5.80, 25° C.): 98.73%
Percentage of ^225Ac present in [^225Ac]Ac-DOTA-TATE ([1]; Dextran 0% w/w, 72 hours, 100 mM sodium ascorbate, 0.05 mg/ml DTPA, saline, pH 5.80, 25° C.): 97.77%
Percentage of ^225Ac present in [^225Ac]Ac-DOTA-TATE ([1]; Dextran 0% w/w, 96 hours, 100 mM sodium ascorbate, 0.05 mg/ml DTPA, saline, pH 5.80, 25° C.): 97.13%
Percentage of ^225Ac present in [^225Ac]Ac-DOTA-TATE ([1]; Dextran 0% w/w, 120 hours, non-homogeneous sampling, 100 mM sodium ascorbate, 0.05 mg/ml DTPA, saline, pH 5.80, 25° C.): 98.09* %
Percentage of ^225Ac present in [^225Ac]Ac-DOTA-TATE ([1]; Dextran 0% w/w, 144 hours, 100 mM sodium ascorbate, 0.05 mg/ml DTPA, saline, pH 5.80, 25° C.): 94.64%
Percentage of ^225Ac present in [^225Ac]Ac-DOTA-TATE ([1]; Dextran 3% w/w, 0 hour, 100 mM sodium ascorbate, 0.05 mg/ml DTPA, saline, pH 5.80, 25° C.): 99.86%
Percentage of ^225Ac present in [^225Ac]Ac-DOTA-TATE ([1]; Dextran 3% w/w, 24 hours, 100 mM sodium ascorbate, 0.05 mg/ml DTPA, saline, pH 5.80, 25° C.): 98.62%
Percentage of ^225Ac present in [^225Ac]Ac-DOTA-TATE ([1]; Dextran 3% w/w, 48 hours, 100 mM sodium ascorbate, 0.05 mg/ml DTPA, saline, pH 5.80, 25° C.): 98.48%
Percentage of ^225Ac present in [^225Ac]Ac-DOTA-TATE ([1]; Dextran 3% w/w, 72 hours, 100 mM sodium ascorbate, 0.05 mg/ml DTPA, saline, pH 5.80, 25° C.): 97.91%
Percentage of ^225Ac present in [^225Ac]Ac-DOTA-TATE ([1]; Dextran 3% w/w, 96 hours, 100 mM sodium ascorbate, 0.05 mg/ml DTPA, saline, pH 5.80, 25° C.): 96.48%
Percentage of ^225Ac present in [^225Ac]Ac-DOTA-TATE ([1]; Dextran 3% w/w, 120 hours, 100 mM sodium ascorbate, 0.05 mg/ml DTPA, saline, pH 5.80, 25° C.): 96.67%
Percentage of ^225Ac present in [^225Ac]Ac-DOTA-TATE ([1]; Dextran 3% w/w, 144 hours, 100 mM sodium ascorbate, 0.05 mg/ml DTPA, saline, pH 5.80, 25° C.): 95.77%
Percentage of ^225Ac present in [^225Ac]Ac-DOTA-TATE ([1]; Dextran 6% w/w, 0 hour, 100 mM sodium ascorbate, 0.05 mg/ml DTPA, saline, pH 5.80, 25° C.): 100%
Percentage of ^225Ac present in [^225Ac]Ac-DOTA-TATE ([1]; Dextran 6% w/w, 24 hours, 100 mM sodium ascorbate, 0.05 mg/ml DTPA, saline, pH 5.80, 25° C.): 99.08%
Percentage of ^225Ac present in [^225Ac]Ac-DOTA-TATE ([1]; Dextran 6% w/w, 48 hours, 100 mM sodium ascorbate, 0.05 mg/ml DTPA, saline, pH 5.80, 25° C.): 98.83%
Percentage of ^225Ac present in [^225Ac]Ac-DOTA-TATE ([1]; Dextran 6% w/w, 72 hours, 100 mM sodium ascorbate, 0.05 mg/ml DTPA, saline, pH 5.80, 25° C.): 98.29%
Percentage of ^225Ac present in [^225Ac]Ac-DOTA-TATE ([1]; Dextran 6% w/w, 96 hours, 100 mM sodium ascorbate, 0.05 mg/ml DTPA, saline, pH 5.80, 25° C.): 96.99%
Percentage of ^225Ac present in [^225Ac]Ac-DOTA-TATE ([1]; Dextran 6% w/w, 120 hours, 100 mM sodium ascorbate, 0.05 mg/ml DTPA, saline, pH 5.80, 25° C.): 97.00%
Percentage of ^225Ac present in [^225Ac]Ac-DOTA-TATE ([1]; Dextran 6% w/w, 144 hours, 100 mM sodium ascorbate, 0.05 mg/ml DTPA, saline, pH 5.80, 25° C.): 96.41%
Percentage of ^225Ac present in [^225Ac]Ac-DOTA-TATE ([1]; Dextran 10% w/w, no L-ascorbate, 0 hour, 25° C.): 100%
Percentage of ^225Ac present in [^225Ac]Ac-DOTA-TATE ([1]; Dextran 10% w/w, no L-ascorbate, 24 hours, 25° C.): 95.38%
Percentage of ^225Ac present in [^225Ac]Ac-DOTA-TATE ([1]; Dextran 10% w/w, no L-ascorbate, 48 hours, 25° C.): 93.36%
Percentage of ^225Ac present in [^225Ac]Ac-DOTA-TATE ([1]; Dextran 10% w/w, no L-ascorbate, 72 hours, 25° C.): 89.11%
Percentage of ^225Ac present in [^225Ac]Ac-DOTA-TATE ([1]; Dextran 10% w/w, no L-ascorbate, 96 hours, 25° C.): 87.20%
Percentage of ^225Ac present in [^225Ac]Ac-DOTA-TATE ([1]; Dextran 10% w/w, 0 hour, 100 mM sodium ascorbate, 0.05 mg/ml DTPA, saline, pH 5.80, 25° C.): 99.67%
Percentage of ^225Ac present in [^225Ac]Ac-DOTA-TATE ([1]; Dextran 10% w/w, 24 hours, 100 mM sodium ascorbate, 0.05 mg/ml DTPA, saline, pH 5.80, 25° C.): 99.02%
Percentage of ^225Ac present in [^225Ac]Ac-DOTA-TATE ([1]; Dextran 10% w/w, 48 hours, 100 mM sodium ascorbate, 0.05 mg/ml DTPA, saline, pH 5.80, 25° C.): 98.75%
Percentage of ^225Ac present in [^225Ac]Ac-DOTA-TATE ([1]; Dextran 10% w/w, 72 hours, 100 mM sodium ascorbate, 0.05 mg/ml DTPA, saline, pH 5.80, 25° C.): 97.83%
Percentage of ^225Ac present in [^225Ac]Ac-DOTA-TATE ([1]; Dextran 10% w/w, 96 hours, 100 mM sodium ascorbate, 0.05 mg/ml DTPA, saline, pH 5.80, 25° C.): 96.42%
Percentage of ^225Ac present in [^225Ac]Ac-DOTA-TATE ([1]; Dextran 10% w/w, 120 hours, 100 mM sodium ascorbate, 0.05 mg/ml DTPA, saline, pH 5.80, 25° C.): 96.58%
Percentage of ^225Ac present in [^225Ac]Ac-DOTA-TATE ([1]; Dextran 10% w/w, 144 hours, 100 mM sodium ascorbate, 0.05 mg/ml DTPA, saline, pH 5.80, 25° C.): 95.37%
Percentage of ^225Ac present in [^225Ac]Ac-DOTA-TATE ([2]; EGCg 0 mg/ml, 0 hour): 99.90%
Percentage of ^225Ac present in [^225Ac]Ac-DOTA-TATE ([2]; EGCg 0 mg/ml, 24 hours): 99.42%
Percentage of ^225Ac present in [^225Ac]Ac-DOTA-TATE ([2]; EGCg 0 mg/ml, 48 hours): 98.73%
Percentage of ^225Ac present in [^225Ac]Ac-DOTA-TATE ([2]; EGCg 0 mg/ml, 72 hours): 97.77%
Percentage of ^225Ac present in [^225Ac]Ac-DOTA-TATE ([2]; EGCg 0 mg/ml, 96 hours): 97.13%
Percentage of ^225Ac present in [^225Ac]Ac-DOTA-TATE ([2]; EGCg 0 mg/ml, 120 hours, non-homogeneous sampling): 98.09* %
Percentage of ^225Ac present in [^225Ac]Ac-DOTA-TATE ([2]; EGCg 0 mg/ml, 144 hours): 94.64%
Percentage of ^225Ac present in [^225Ac]Ac-DOTA-TATE ([2]; EGCg 0.5 mg/ml, 0 hour): 99.61%
Percentage of ^225Ac present in [^225Ac]Ac-DOTA-TATE ([2]; EGCg 0.5 mg/ml, 24 hours): 98.92%
Percentage of ^225Ac present in [^225Ac]Ac-DOTA-TATE ([2]; EGCg 0.5 mg/ml, 48 hours): 98.48%
Percentage of ^225Ac present in [^225Ac]Ac-DOTA-TATE ([2]; EGCg 0.5 mg/ml, 72 hours): 97.97%
Percentage of ^225Ac present in [^225Ac]Ac-DOTA-TATE ([2]; EGCg 0.5 mg/ml, 96 hours): 96.44%
Percentage of ^225Ac present in [^225Ac]Ac-DOTA-TATE ([2]; EGCg 0.5 mg/ml, 120 hours): 95.65%
Percentage of ^225Ac present in [^225Ac]Ac-DOTA-TATE ([2]; EGCg 0.5 mg/ml, 144 hours): 93.04%
Percentage of ^225Ac present in [^225Ac]Ac-DOTA-TATE ([2]; EGCg 1 mg/ml, 0 hour): 99.76%
Percentage of ^225Ac present in [^225Ac]Ac-DOTA-TATE ([2]; EGCg 1 mg/ml, 24 hours): 99.14%
Percentage of ^225Ac present in [^225Ac]Ac-DOTA-TATE ([2]; EGCg 1 mg/ml, 48 hours): 98.83%
Percentage of ^225Ac present in [^225Ac]Ac-DOTA-TATE ([2]; EGCg 1 mg/ml, 72 hours): 98.04%
Percentage of ^225Ac present in [^225Ac]Ac-DOTA-TATE ([2]; EGCg 1 mg/ml, 96 hours): 97.15%
Percentage of ^225Ac present in [^225Ac]Ac-DOTA-TATE ([2]; EGCg 1 mg/ml, 120 hours): 94.82%
Percentage of ^225Ac present in [^225Ac]Ac-DOTA-TATE ([2]; EGCg 1 mg/ml, 144 hours): 95.65%
Percentage of ^225Ac present in [^225Ac]Ac-DOTA-TATE ([2]; EGCg 3 mg/ml, 0 hour): 99.81%
Percentage of ^225Ac present in [^225Ac]Ac-DOTA-TATE ([2]; EGCg 3 mg/ml, 24 hours): 98.57%
Percentage of ^225Ac present in [^225Ac]Ac-DOTA-TATE ([2]; EGCg 3 mg/ml, 48 hours): 98.00%
Percentage of ^225Ac present in [^225Ac]Ac-DOTA-TATE ([2]; EGCg 3 mg/ml, 72 hours): 96.55%
Percentage of ^225Ac present in [^225Ac]Ac-DOTA-TATE ([2]; EGCg 3 mg/ml, 96 hours): 96.42%
Percentage of ^225Ac present in [^225Ac]Ac-DOTA-TATE ([2]; EGCg 3 mg/ml, 120 hours): 96.05%
Percentage of ^225Ac present in [^225Ac]Ac-DOTA-TATE ([2]; EGCg 3 mg/ml, 144 hours): 90.71%
Percentage of ^225Ac present in [^225Ac]Ac-DOTA-TATE ([3]; sodium ascorbate 1 mM, 0 hour): 99.76%
Percentage of ^225Ac present in [^225Ac]Ac-DOTA-TATE ([3]; sodium ascorbate 1 mM, 24 hours): 91.11%
Percentage of ^225Ac present in [^225Ac]Ac-DOTA-TATE ([3]; sodium ascorbate 1 mM, 48 hours): 52.06%
Percentage of ^225Ac present in [^225Ac]Ac-DOTA-TATE ([3]; sodium ascorbate 10 mM, 0 hour): 99.78%
